{"source": "paper PMC6234985", "about": "(Cell, 2018)", "key": {"MBP-FUS [1]": {"molecular_target": "T1, MBP-FUS (UniProt P35637 1-526)", "experiment": "gel filtration co-elution"}, "FUS(371–526)": {"molecular_target": "T2, FUS(371–526) (UniProt P35637 371-526)", "T2 sequence (looked up)": "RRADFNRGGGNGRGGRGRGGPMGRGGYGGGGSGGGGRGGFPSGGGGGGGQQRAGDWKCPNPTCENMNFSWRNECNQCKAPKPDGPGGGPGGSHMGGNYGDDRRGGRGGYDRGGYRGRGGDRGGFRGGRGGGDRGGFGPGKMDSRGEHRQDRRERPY", "experiment": "crystal structure"}, "[2]": {"molecular_target": "T3, FUS (full-length), MBP removed with Tev protease (UniProt P35637 1-526)", "T3 sequence (looked up)": "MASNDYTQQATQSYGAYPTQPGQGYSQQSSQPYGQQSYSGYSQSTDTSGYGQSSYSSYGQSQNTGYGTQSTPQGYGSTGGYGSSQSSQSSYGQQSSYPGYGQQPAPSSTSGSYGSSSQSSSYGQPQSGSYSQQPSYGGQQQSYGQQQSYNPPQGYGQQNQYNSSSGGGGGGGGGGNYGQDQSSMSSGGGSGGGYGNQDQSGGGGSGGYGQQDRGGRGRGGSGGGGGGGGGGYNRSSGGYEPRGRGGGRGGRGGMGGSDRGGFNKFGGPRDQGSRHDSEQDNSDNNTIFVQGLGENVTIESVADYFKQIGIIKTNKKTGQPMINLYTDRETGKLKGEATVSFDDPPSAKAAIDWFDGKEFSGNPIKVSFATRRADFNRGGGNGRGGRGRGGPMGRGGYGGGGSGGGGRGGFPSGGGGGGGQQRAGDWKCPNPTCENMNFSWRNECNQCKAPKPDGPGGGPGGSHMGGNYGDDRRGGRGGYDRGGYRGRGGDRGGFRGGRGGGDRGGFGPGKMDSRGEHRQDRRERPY", "experiment": "crystal structure"}, "FUS(456–526)": {"molecular_target": "T4, FUS(456–526) (UniProt P35637 456-526)", "T4 sequence (looked up)": "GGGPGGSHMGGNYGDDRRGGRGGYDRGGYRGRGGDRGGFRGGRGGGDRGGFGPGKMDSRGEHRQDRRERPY", "experiment": "crystal structure"}, "MBP-FUS [3]": {"molecular_target": "T1, MBP-FUS", "experiment": "gel filtration co-elution", "remark": "listed apart in the source"}, "GST-CRM1": {"molecular_target": "GST-CRM1 (human, UniProt O14980 1-1071)", "sequence (O14980 whole entry)": "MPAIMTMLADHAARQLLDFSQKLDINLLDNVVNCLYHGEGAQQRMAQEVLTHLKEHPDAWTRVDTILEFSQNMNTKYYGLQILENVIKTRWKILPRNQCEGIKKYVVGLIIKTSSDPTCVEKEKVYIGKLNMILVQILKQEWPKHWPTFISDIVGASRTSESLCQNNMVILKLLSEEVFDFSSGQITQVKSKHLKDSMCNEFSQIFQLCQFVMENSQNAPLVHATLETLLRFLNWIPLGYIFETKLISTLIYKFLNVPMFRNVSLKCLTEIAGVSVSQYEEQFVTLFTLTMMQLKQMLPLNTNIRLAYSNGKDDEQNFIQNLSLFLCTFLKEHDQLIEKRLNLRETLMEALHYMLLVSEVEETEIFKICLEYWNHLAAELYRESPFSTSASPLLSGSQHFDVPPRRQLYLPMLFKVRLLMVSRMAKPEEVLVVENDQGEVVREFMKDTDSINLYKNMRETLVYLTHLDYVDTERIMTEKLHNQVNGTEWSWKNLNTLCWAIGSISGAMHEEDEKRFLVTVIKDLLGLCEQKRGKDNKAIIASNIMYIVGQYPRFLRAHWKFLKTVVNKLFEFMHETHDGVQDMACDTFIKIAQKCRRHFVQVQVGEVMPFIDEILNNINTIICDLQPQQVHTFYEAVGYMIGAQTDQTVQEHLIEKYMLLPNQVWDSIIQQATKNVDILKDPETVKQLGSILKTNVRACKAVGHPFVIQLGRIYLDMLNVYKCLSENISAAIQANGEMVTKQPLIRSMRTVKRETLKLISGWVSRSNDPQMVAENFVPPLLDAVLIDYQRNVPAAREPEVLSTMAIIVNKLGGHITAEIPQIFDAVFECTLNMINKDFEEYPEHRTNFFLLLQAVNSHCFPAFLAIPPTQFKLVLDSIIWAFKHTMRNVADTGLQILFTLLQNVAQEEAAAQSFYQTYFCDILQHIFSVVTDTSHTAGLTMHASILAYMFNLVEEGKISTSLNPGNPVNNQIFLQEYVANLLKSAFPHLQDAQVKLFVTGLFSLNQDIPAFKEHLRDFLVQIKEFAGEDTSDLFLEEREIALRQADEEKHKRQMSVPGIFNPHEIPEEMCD", "experiment": "pull-down"}, "Karyopherin-β2 (Kapβ2)": {"molecular_target": "T5, Karyopherin-β2 (Kapβ2) (human, UniProt Q92973-2 1-890)", "T5 sequence": "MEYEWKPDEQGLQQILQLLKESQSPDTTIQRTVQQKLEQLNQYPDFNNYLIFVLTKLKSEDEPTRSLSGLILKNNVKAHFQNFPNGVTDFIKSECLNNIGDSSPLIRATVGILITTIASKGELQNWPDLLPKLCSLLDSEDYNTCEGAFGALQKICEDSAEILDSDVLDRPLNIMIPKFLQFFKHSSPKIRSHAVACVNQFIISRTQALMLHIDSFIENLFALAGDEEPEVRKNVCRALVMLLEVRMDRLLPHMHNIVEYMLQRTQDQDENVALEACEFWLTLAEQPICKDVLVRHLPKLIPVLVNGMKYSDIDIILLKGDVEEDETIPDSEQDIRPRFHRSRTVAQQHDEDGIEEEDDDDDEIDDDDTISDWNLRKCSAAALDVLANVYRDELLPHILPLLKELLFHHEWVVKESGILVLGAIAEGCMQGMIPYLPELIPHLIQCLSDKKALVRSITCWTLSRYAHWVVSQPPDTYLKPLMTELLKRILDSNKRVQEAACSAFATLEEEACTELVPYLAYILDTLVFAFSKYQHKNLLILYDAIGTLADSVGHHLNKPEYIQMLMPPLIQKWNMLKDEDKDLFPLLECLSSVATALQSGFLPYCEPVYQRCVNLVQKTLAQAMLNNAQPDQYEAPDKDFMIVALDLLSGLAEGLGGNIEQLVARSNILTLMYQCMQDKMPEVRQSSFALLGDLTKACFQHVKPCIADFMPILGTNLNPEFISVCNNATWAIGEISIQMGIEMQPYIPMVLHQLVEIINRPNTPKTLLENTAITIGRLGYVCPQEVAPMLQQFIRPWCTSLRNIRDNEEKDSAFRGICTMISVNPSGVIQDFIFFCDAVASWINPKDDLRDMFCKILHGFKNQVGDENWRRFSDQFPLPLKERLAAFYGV", "experiment": "ITC"}}, "note": "Where two headings read alike, the source gives them in different places.", "data": [{"binder": "UUAGGGUUAGGGUUAGGGUUAGGG (structured_RNA)", "note": "[TERRA RNA]", "values": [{"measurement": "binding result", "setting": "MBP-FUS [1]", "value": "binds"}]}, {"binder": "Kapβ2Δloop (residues 337–367 replaced with a GGSGGSG linker) (natural protein, human) MEYEWKPDEQGLQQILQLLKESQSPDTTIQRTVQQKLEQLNQYPDFNNYLIFVLTKLKSEDEPTRSLSGLILKNNVKAHFQNFPNGVTDFIKSECLNNIGDSSPLIRATVGILITTIASKGELQNWPDLLPKLCSLLDSEDYNTCEGAFGALQKICEDSAEILDSDVLDRPLNIMIPKFLQFFKHSSPKIRSHAVACVNQFIISRTQALMLHIDSFIENLFALAGDEEPEVRKNVCRALVMLLEVRMDRLLPHMHNIVEYMLQRTQDQDENVALEACEFWLTLAEQPICKDVLVRHLPKLIPVLVNGMKYSDIDIILLKGDVEEDETIPDSEQDIRGGSGGSGDTISDWNLRKCSAAALDVLANVYRDELLPHILPLLKELLFHHEWVVKESGILVLGAIAEGCMQGMIPYLPELIPHLIQCLSDKKALVRSITCWTLSRYAHWVVSQPPDTYLKPLMTELLKRILDSNKRVQEAACSAFATLEEEACTELVPYLAYILDTLVFAFSKYQHKNLLILYDAIGTLADSVGHHLNKPEYIQMLMPPLIQKWNMLKDEDKDLFPLLECLSSVATALQSGFLPYCEPVYQRCVNLVQKTLAQAMLNNAQPDQYEAPDKDFMIVALDLLSGLAEGLGGNIEQLVARSNILTLMYQCMQDKMPEVRQSSFALLGDLTKACFQHVKPCIADFMPILGTNLNPEFISVCNNATWAIGEISIQMGIEMQPYIPMVLHQLVEIINRPNTPKTLLENTAITIGRLGYVCPQEVAPMLQQFIRPWCTSLRNIRDNEEKDSAFRGICTMISVNPSGVIQDFIFFCDAVASWINPKDDLRDMFCKILHGFKNQVGDENWRRFSDQFPLPLKERLAAFYGV", "values": [{"measurement": "binding result", "setting": "FUS(371–526)", "value": "binds"}, {"measurement": "binding result", "setting": "[2]", "value": "binds"}, {"measurement": "binding result", "setting": "FUS(456–526)", "value": "binds"}]}, {"binder": "AUUGAGGAGCAGCAGAGAAGUUGGAGUGAAGGCAGAGAGGGGUUAAGG (ssRNA)", "note": "[prD (DNMT) RNA]", "values": [{"measurement": "binding result", "setting": "MBP-FUS [3]", "value": "binds"}]}, {"binder": "MBP-FUS(NES) chimera (PY-NLS replaced with the NES from the NS2 protein of MVM virus) (other) MASNDYTQQATQSYGAYPTQPGQGYSQQSSQPYGQQSYSGYSQSTDTSGYGQSSYSSYGQSQNTGYGTQSTPQGYGSTGGYGSSQSSQSSYGQQSSYPGYGQQPAPSSTSGSYGSSSQSSSYGQPQSGSYSQQPSYGGQQQSYGQQQSYNPPQGYGQQNQYNSSSGGGGGGGGGGNYGQDQSSMSSGGGSGGGYGNQDQSGGGGSGGYGQQDRGGRGRGGSGGGGGGGGGGYNRSSGGYEPRGRGGGRGGRGGMGGSDRGGFNKFGGPRDQGSRHDSEQDNSDNNTIFVQGLGENVTIESVADYFKQIGIIKTNKKTGQPMINLYTDRETGKLKGEATVSFDDPPSAKAAIDWFDGKEFSGNPIKVSFATRRADFNRGGGNGRGGRGRGGPMGRGGYGGGGSGGGGRGGFPSGGGGGGGQQRAGDWKCPNPTCENMNFSWRNECNQCKAPKPDGPGGGPGGSHMGGNYGDDRRGGRGGYDRGGYRGRGGDRGGFRGGRGGYSTVDEMTKKFGTLTIH", "values": [{"measurement": "binding result", "setting": "GST-CRM1", "value": "binds"}]}, {"binder": "MBP-FUS(453–526) (domain or fragment, UniProt P35637 453-526, looked up) DGPGGGPGGSHMGGNYGDDRRGGRGGYDRGGYRGRGGDRGGFRGGRGGGDRGGFGPGKMDSRGEHRQDRRERPY", "values": [{"measurement": "binding result", "setting": "Karyopherin-β2 (Kapβ2)", "value": "binds"}]}, {"binder": "MBP-FUS(371–526) (domain or fragment, UniProt P35637 371-526, looked up) RRADFNRGGGNGRGGRGRGGPMGRGGYGGGGSGGGGRGGFPSGGGGGGGQQRAGDWKCPNPTCENMNFSWRNECNQCKAPKPDGPGGGPGGSHMGGNYGDDRRGGRGGYDRGGYRGRGGDRGGFRGGRGGGDRGGFGPGKMDSRGEHRQDRRERPY", "values": [{"measurement": "binding result", "setting": "Karyopherin-β2 (Kapβ2)", "value": "binds"}]}]}
